Key:
[1] = target: T1, recombinant tag-free Staphylococcus aureus serine protease-like protein B (SplB) (Staphylococcus aureus (strain NCTC 8325 …, UniProt Q2FXC3)); experiment: cell-based or functional assay
[2] = target: T2, recombinant tag-free Staphylococcus aureus serine protease-like protein A (SplA) (Staphylococcus aureus NCTC 8325 (strain …, UniProt Q2FXC2)); experiment: ELISA; indirect ELISA for cross-reactivity with recombinant tag-free SplA, SplD, SplE and SplF; conditions: both partners purified
T2 construct: serine protease-like protein A (SplA) of Staphylococcus aureus, tag-free

[3] = target: T3, recombinant tag-free Staphylococcus aureus serine protease-like protein D (SplD) (Staphylococcus aureus (strain NCTC 8325 …, UniProt Q2FXC5)); experiment: as above; conditions: both partners purified
T3 construct: serine protease-like protein D (SplD) of Staphylococcus aureus, tag-free

[4] = target: T4, recombinant tag-free Staphylococcus aureus serine protease-like protein E (SplE) (Staphylococcus aureus (strain NCTC 8325 …, UniProt Q2FXC7)); experiment: as above; conditions: both partners purified
T4 construct: serine protease-like protein E (SplE) of Staphylococcus aureus, tag-free

[5] = target: T5, recombinant tag-free Staphylococcus aureus serine protease-like protein F (SplF) (Staphylococcus aureus (strain NCTC 8325 …, UniProt Q2FXC8)); experiment: as above; conditions: both partners purified
T5 construct: serine protease-like protein F (SplF) of Staphylococcus aureus, tag-free

[6] = target: T6, native SplB in the extracellular proteins of S. aureus D29 (Staphylococcus aureus D29 (USA300 …, UniProt Q2FFT0, strain)); experiment: Western blot; 5 µg extracellular proteins of S. aureus NCTC 8325-4 and D29 denatured, SDS-PAGE, blotted on PVDF; α-SplB1 300 ng/mL overnight at 4°C as primary antibody; conditions: one partner purified
T6 construct: serine protease-like protein B (SplB), secreted by S. aureus D29, a community-acquired USA300 derivative (CC8); no identifier printed for this strain's SplB; Denatured, separated by SDS-PAGE and blotted; also called SplB in the ECP preparation

[7] = target: T1, recombinant tag-free Staphylococcus …; experiment: MST; RED-NHS-labelled tag-free SplB (40 nM) constant, α-SplB1 serially diluted from 3.42 µM to 0.209 nM; MST buffer with 0.05% Tween-20; RT; Monolith NT.115, 100% excitation power, 40% MST power; conditions: both partners purified

B1: murine anti-SplB monoclonal antibody α-SplB1 (antibody, V domains shown)
VH: EVQLQESGPGILQSSQTLSLTCSFSGFSLNSVGMGVTWIRQPSGKGLEWLAHIYWDDDKLYNSSLKSRLTISKDTSRNQVFLNITSVVSADTATYYCARRVYGISYDYWYFDVWGTGTAVTVSS
VL: DILMTQSPATLSVTPGDRVSLSCRASQSISDYLHWYQQKSHESPRLLIKYASQSISGIPSRFSGSGSGSDFTLSINSVEPEDVGVYYCQNGHIFPPTFGAGTKLELK
notes: variable region of the heavy chain; mouse IgG1 heavy chain constant region (isotyping: IgG1 subclass); variable region of the light chain; mouse kappa light chain constant region (isotyping: κ light chains); IgG1, kappa; Raised against SplB-Strep; also called α-SplB1 mAb; anti-SplB mAb; source: hybridoma supernatant (C57BL/6N splenocytes fused with P3X63Ag8.653), purified (Protein-G-Sepharose)
B1 was tested, and the “neutralisation of the cleavage of the synthetic substrate Ac-VEID-MCA by 2.5 µM tag-free SplB, pre-incubated with α-SplB1 at molar ratios 1:1 to 1:8 (SplB:α-SplB1), 37°C, 1 h” value [1] was 66 % neutralised (at 1:1 molar ratio; complete at 1:2), the binding result [2] was “no binding” and the binding result [3] was “no binding”. B1: no binding [4]; no binding [5]; binds [6]. For the same binder, the Kd [7] was 37.9 nM.

Source: PMC12234435, “Monoclonal antibody neutralizes Staphylococcus aureus serine protease-like protein B (SplB)-induced pathology” (Infection and Immunity, 2025)
